From patent publication US20220010008A1
Several values for one entry are separate records, joined by “and”; a condition that tells them apart may be missing. Equal entries are not always repeated. Each block holds one binder with its values, some of them ahead of it.

How the values were obtained:
[1] = target: recombinant human IL-5 protein (human) (UniProt P05113); assay: cell-based or functional assay
[2] = target: recombinant human IL-5 protein (human) (UniProt P05113); assay: FACS blocking: biotin-IL-5 bound to CHOK1 IL-5Ra/CSF2RB cells, Ab 0.0533 nM
[3] = target: recombinant human IL-5 protein (human) (UniProt P05113); assay: FACS blocking: biotin-IL-5 bound to CHOK1 IL-5Ra/CSF2RB cells, Ab 1.3333 nM
[4] = target: recombinant human IL-5 protein (human) (UniProt P05113); assay: ELISA, biotin-human IL-5 on streptavidin plate, Ab 0.1067 nM
[5] = target: recombinant human IL-5 protein (human) (UniProt P05113); assay: FACS blocking: biotin-IL-5 bound to CHOK1 IL-5Ra/CSF2RB cells, Ab 0.0107 nM
[6] = target: recombinant human IL-5 protein (human) (UniProt P05113); assay: ELISA, biotin-human IL-5 on streptavidin plate, Ab 0.0043 nM
[7] = target: recombinant human IL-5 protein (human) (UniProt P05113); assay: FACS blocking: biotin-IL-5 bound to CHOK1 IL-5Ra/CSF2RB cells, Ab 0.0021 nM
[8] = target: recombinant human IL-5 protein (human) (UniProt P05113); assay: FACS blocking: biotin-IL-5 bound to CHOK1 IL-5Ra/CSF2RB cells, Ab 0.0004 nM
[9] = target: recombinant human IL-5 protein (human) (UniProt P05113); assay: SPR, human IL-5 immobilized on CM5 chip, chimeric antibody as analyte, 1:1 global fit
[10] = target: recombinant human IL-5 protein (human) (UniProt P05113); assay: ELISA, biotin-human IL-5 on streptavidin plate, Ab 2.6667 nM
[11] = target: recombinant human IL-5 protein (human) (UniProt P05113); assay: FACS blocking: biotin-IL-5 bound to CHOK1 IL-5Ra/CSF2RB cells, Ab 0.2667 nM
[12] = target: recombinant human IL-5 protein (human) (UniProt P05113); assay: ELISA, biotin-human IL-5 on streptavidin plate, Ab 0.0002 nM
[13] = target: recombinant human IL-5 protein (human) (UniProt P05113); assay: ELISA, biotin-human IL-5 on streptavidin plate, Ab 13.3333 nM
[14] = target: recombinant human IL-5 protein (human) (UniProt P05113); assay: ELISA, biotin-human IL-5 on streptavidin plate, Ab 0.0213 nM
[15] = target: recombinant human IL-5 protein (human) (UniProt P05113); assay: ELISA, biotin-human IL-5 on streptavidin plate, Ab 0.5333 nM
[16] = target: recombinant human IL-5 protein (human) (UniProt P05113); assay: ELISA, biotin-human IL-5 on streptavidin plate, Ab 0.0009 nM
[17] = target: recombinant human IL-5 protein (human) (UniProt P05113); assay: FACS blocking: biotin-IL-5 bound to CHOK1 IL-5Ra/CSF2RB cells, Ab 6.6667 nM
[18] = target: recombinant human IL-5 protein (human) (UniProt P05113); assay: FACS blocking: biotin-IL-5 bound to CHOK1 IL-5Ra/CSF2RB cells, Ab 33.3333 nM
[19] = target: recombinant human IL-5 protein with His tag (human) (UniProt P05113); assay: ELISA, biotin-human IL-5 on streptavidin; antibody 0.0009 nM
[20] = target: recombinant human IL-5 protein with His tag (human) (UniProt P05113); assay: ELISA, biotin-human IL-5 on streptavidin; antibody 0.0213 nM
[21] = target: recombinant human IL-5 protein with His tag (human) (UniProt P05113); assay: ELISA, biotin-human IL-5 on streptavidin; antibody 13.3333 nM
[22] = target: recombinant human IL-5 protein with His tag (human) (UniProt P05113); assay: ELISA, biotin-human IL-5 on streptavidin; antibody 2.6667 nM
[23] = target: recombinant human IL-5 protein with His tag (human) (UniProt P05113); assay: ELISA, biotin-human IL-5 on streptavidin; antibody 0.0043 nM
[24] = target: recombinant human IL-5 protein with His tag (human) (UniProt P05113); assay: ELISA, biotin-human IL-5 on streptavidin; antibody 0.1067 nM
[25] = target: recombinant human IL-5 protein with His tag (human) (UniProt P05113); assay: ELISA, biotin-human IL-5 on streptavidin; antibody 0.0002 nM
[26] = target: recombinant human IL-5 protein with His tag (human) (UniProt P05113); assay: ELISA, biotin-human IL-5 on streptavidin; antibody 0.5333 nM

RLU, CTLL-2 proliferation with IL-5, Ab 0.000170667 nM [1]: 50700 RLU and 51700 RLU
RLU, CTLL-2 proliferation with IL-5, Ab 0.000853333 nM [1]: 50800 RLU and 50700 RLU
RLU, CTLL-2 proliferation with IL-5, Ab 0.004266667 nM [1]: 41400 RLU and 48200 RLU
RLU, CTLL-2 proliferation with IL-5, Ab 0.02133333 nM [1]: 33800 RLU and 36400 RLU
RLU, CTLL-2 proliferation with IL-5, Ab 0.1066667 nM [1]: 12700 RLU and 13200 RLU
RLU, CTLL-2 proliferation with IL-5, Ab 0.5333334 nM [1]: 9570 RLU and 10400 RLU
RLU, CTLL-2 proliferation with IL-5, Ab 2.666667 nM [1]: 8620 RLU and 8160 RLU
RLU, CTLL-2 proliferation with IL-5, Ab 13.33333 nM [1]: 7310 RLU and 6690 RLU
RLU, CTLL-2 proliferation with IL-5, Ab 66.66666 nM [1]: 5230 RLU and 5240 RLU
RLU, CTLL-2 proliferation with IL-5, Ab 3.41333E-05 nM [1]: 56100 RLU and 52200 RLU
RLU, TF-1 proliferation with IL-5, Ab 0.00001 nM [1]: 99500 RLU and 101000 RLU
RLU, TF-1 proliferation with IL-5, Ab 0.00003 nM [1]: 100000 RLU and 95000 RLU
RLU, TF-1 proliferation with IL-5, Ab 0.00017 nM [1]: 96400 RLU and 88800 RLU
RLU, TF-1 proliferation with IL-5, Ab 0.00085 nM [1]: 89200 RLU and 82900 RLU
RLU, TF-1 proliferation with IL-5, Ab 0.00427 nM [1]: 56700 RLU and 54800 RLU
RLU, TF-1 proliferation with IL-5, Ab 0.02133 nM [1]: 45300 RLU and 43900 RLU
RLU, TF-1 proliferation with IL-5, Ab 0.10667 nM [1]: 39000 RLU and 38700 RLU
RLU, TF-1 proliferation with IL-5, Ab 0.53333 nM [1]: 36400 RLU and 40100 RLU
RLU, TF-1 proliferation with IL-5, Ab 2.66667 nM [1]: 34800 RLU and 41200 RLU
RLU, TF-1 proliferation with IL-5, Ab 13.33333 nM [1]: 35700 RLU and 39000 RLU
Fluorescence intensity [2]: 94 MFI
Fluorescence intensity [3]: 52 MFI
OD450 nm [4]: 1.25 OD450 nm and 1.3 OD450 nm
Fluorescence intensity [5]: 86 MFI
OD450 nm [6]: 0.172 OD450 nm and 0.156 OD450 nm
Fluorescence intensity [7]: 88 MFI
Fluorescence intensity [8]: 94 MFI
Kd [9]: < 0.0637 nM
koff [9]: < 1e-05 s⁻¹
kon [9]: 157000 M⁻¹ s⁻¹
OD450 nm [10]: 3.22 OD450 nm and 3.35 OD450 nm
Fluorescence intensity [11]: 76 MFI
OD450 nm [12]: 0.103 OD450 nm and 0.101 OD450 nm
OD450 nm [13]: 3.44 OD450 nm and 3.72 OD450 nm
OD450 nm [14]: 0.406 OD450 nm and 0.385 OD450 nm
OD450 nm [15]: 2.74 OD450 nm and 2.91 OD450 nm
OD450 nm [16]: 0.102 OD450 nm and 0.104 OD450 nm
Fluorescence intensity [17]: 36 MFI
Fluorescence intensity [18]: 31 MFI
B1: 147D7H2 mouse-human chimeric antibody (antibody, human IgG4, V domains shown)
VH: EVQLQQSGAELVKPGASVKLSCTASGFNIKDYFIHWVKQRTEQGLEWIGRIDTEDGETKYAPKFQGKATITIDTSSNTAYLYFSSLTSEDTAMYYCARYGNYVAMDYWGQGTSVTVSS
VL: QIVLTQSPALMSASPGEKVTMTCSASSSVSYMFWYQQKPSSSPKPWIYLTSKLASGVPARFSGSGSGTSYSLTISSVEAEDAATYYCQQWNSNPYTFGGGTKLEIK

OD450 nm [19]: 0.088 and 0.09
OD450 nm [20]: 0.438 and 0.475
OD450 nm [21]: 3.21 and 3.52
OD450 nm [22]: 3.09 and 3.2
OD450 nm [23]: 0.158 and 0.159
OD450 nm [24]: 1.42 and 1.47
OD450 nm [25]: 0.073 and 0.074
OD450 nm [26]: 2.76
B2: 147D7H2 (murine hybridoma antibody) (antibody, V domains shown)
VH: EVQLQQSGAELVKPGASVKLSCTASGFNIKDYFIHWVKQRTEQGLEWIGRIDTEDGETKYAPKFQGKATITIDTSSNTAYLYFSSLTSEDTAMYYCARYGNYVAMDYWGQGTSVTVSS
VL: QIVLTQSPALMSASPGEKVTMTCSASSSVSYMFWYQQKPSSSPKPWIYLTSKLASGVPARFSGSGSGTSYSLTISSVEAEDAATYYCQQWNSNPYTFGGGTKLEIK
